Test results from PMC3462190, “A Peptidic Unconjugated GRP78/BiP Ligand Modulates the Unfolded Protein Response and Induces Prostate Cancer Cell Death” (PLoS ONE, 2012).
Where no end group is shown, it is not given here.

B1: Bag-1: cochaperone Bag-1, HA-tagged (pcDNA3.1-HA-Bag-1), or endogenous (protein)
chain: TPLSALGIQDGCRVMLIGKKNSPQEEVELKKLKHLEKSVEKIADQLEELNKELTGIQQGFLPKDLQAE
modifications: left off: HA, end not stated, kept
notes: cochaperone Bag-1, HA-tagged (pcDNA3.1-HA-Bag-1), or endogenous
B2: Bag-1 peptide: internal sequence of 68 amino acids of Bag-1 (Bag1-L 202–269), HA-tagged, expressed from pcDNA3 (peptide)
chain: B1 chain
modifications: also: HA tag, end not given here

Assays:
[1] = test system: SBD of GRP78/BiP; test: GST pull-down with substrate binding domain (SBD) of GRP78/BiP; conditions: 10 µg GST-GRP78(SBD), 500 µg (N-terminal peptide: 100 µg) lysate of HEK-293 cells expressing HA-tagged construct
Experimental: Expression of GST fusion proteins for GST-pull-down experiments were performed essentially as described previously.
Figure 1 Bag-1 proteins interact with the molecular chaperone GRP78/BiP. A. The Bag-1 family of proteins binds GRP78/BiP. GST pull-down assay was performed incubating 5 µg each of GST-fused Bag-1 proteins with 400 µg of 22Rv.1 cell lysate. Western blotting with a specific antibodiy against GRP78/BiP was used to detect the binding and an anti-GST antibody was used to determine the amount of bacterially purified protein employed in the assay. B. Bag-1 and GRP78 interact in vivo. GRP78 was immunoprecipitated with an anti-GRP78/BiP antibody or IgG as control in 22Rv.1 cells. Western blotting with an anti-Bag-1 and anti-GRP78 antibody was performed to determine GRP78-Bag-1 interaction. C. Bag-1 and GRP78/BiP show a perinuclear colocalization. Confocal microscopic analyses were carried out in 22Rv.1 cells that have been paraformaldehyde-fixed and stained with a Bag-1 antibody to detect Bag-1 (green channel) and a GRP78/BiP specific antibody to detect GRP78/BiP (red channel). The orange staining in the merge of the two channels indicates the degree of co-localization of the two proteins. All images (40X) were acquired with a Leica TCS SPE confocal microscope (Leica Microsystems; Scale bars indicate 25 µm). D. Diagrammatic representation of the domains of GRP78. E. Bag-1 binds to multiple sites on GRP78. GST-pull down assay performed incubating 500 µg lysate of HEK-293 cells transfected with an HA-tagged Bag-1 and 10 µg GST-fused GRP78 full length and its ATPase and substrate binding domain (SBD). Western blot analysis was carried out using an HA antibody to detect the Bag-1-tagged protein.
Figure 2 Identification of Bag-1 peptide interfering with the action of GRP78/BiP. […] Depicted in blue and red are the ubiquitin-like domain and the BAG domain respectively. B. Identification of the Bag-1 peptide binding to GRP78/BiP. GST-pull down assay performed incubating 500 µg lysates from HEK-293 cells transfected with the indicated Bag-1 constructs and 10 µg of GST-GRP78(SBD) or GST as control. Western blot analysis with an HA antibody to detected the Bag-1 mutants is shown. […] C. The Bag-1 68 amino acid peptide binds in vivo to GRP78. HEK 293 cells were co-transfected with pcDNA-HA-tagged Bag-1 peptide. […] Thereafter luciferase activity was measured. Results are expressed as percentage of refolding activity relative to non-heat-shocked cells and presented as bar charts of the average of three independent experiments ± SEM. *p<0.05. […]

[2] = test system: GRP78/BiP; test: In vivo luciferase refolding assay in HEK-293 cells; type: cell-based; conditions: heat shock 45°C 30 min, relative to non-heat-shocked cells, mean of three independent experiments ± SEM
Experimental: In vivo refolding assay was performed essentially according to the method described by. HEK-293 in a 70%-confluent 10 cm dish were transfected with β-actin-fire fly luciferase construct (2 µg), pcMV6-GRP78 (3 µg), Bag-1 or Bag-1 peptides in pcDNA3.1-HA (6 µg) and Renilla luciferase construct (0.5 µg) for equal transfection control. Two days after transfection the cells were divided into two and incubated in heat shock buffer (MOPS 20 mM and cycloheximide 20 µg/ml) for 30 min at 37°C. One half of the transfected cells was heat shocked for 30 min at 45°C and allowed to recover at 37°C for 30 min. The other half was left untreated and used as control. At the end of the experiments, the cells were harvested, lysed and luciferase activity was measured. The activity measured for the non-heat shocked cells was set as 100% of refolded luciferase and the activity measurements of the heat shocked cells were expressed relative this value.
Figure 2 Identification of Bag-1 peptide interfering with the action of GRP78/BiP. […] Depicted in blue and red are the ubiquitin-like domain and the BAG domain respectively. B. Identification of the Bag-1 peptide binding to GRP78/BiP. […] Western blot analysis with an HA antibody to detected the Bag-1 mutants is shown. […] Thereafter luciferase activity was measured. Results are expressed as percentage of refolding activity relative to non-heat-shocked cells and presented as bar charts of the average of three independent experiments ± SEM. *p<0.05.
Figure 6 Selectivity of action of the Bag-1 peptide. […] Fluorescence polarization (FP) assays with a 10 nM FITC-labeled 7-mer Bag-1 peptide and dilutions of the GST-fused substrate binding domain of GRP78 in 60 µl of Tris-GSH buffer (50 mM Tris, 10 mM reduced glutathione and 0.1% BSA, pH 8.0). Triplicate samples were measured after 5 h of incubation at room temperature with an Infinite F-200 reader (Tecan) with excitation at 490 nm and emission at 535 nm. Binding constants were determined from three independent experiments using non-linear regression in Sigma Plot 10.0. […]

Molecule	interaction with SBD of GRP78/BiP [1]	GRP78/BiP refolding activity (luciferase) [2]	interaction with SBD of GRP78/BiP ([1]; listed as 68 amino acid sequence)	interaction with SBD of GRP78/BiP ([1]; listed as full length 68 amino acid peptide)
N-terminal peptide: N-terminal 40 residues of the Bag-1 peptide (Bag-1L 202–241) (TPLSALGIQDGCRVMLIGKKNSPQEEVELKKLKHLEKSVE; not fully specified)	interacted preferentially with the SBD			
19-mer: Bag-1L 202–220 (TPLSALGIQDGCRVMLIGK; not fully specified)		inhibited the ability of GRP78/BiP to refold denatured protein		
B1	interacted not only with the full length GRP78/BiP but also with its ATPase and SBD	reduced to the control level		
B2		reduced to the control level	required for binding the SBD of GRP78/BiP	interacted with both the SBD and ATPase binding domains of GRP78
